Two molecules from patent publication US20230067757A1 (NOVAROCK BIOTHERAPEUTICS, published 2023) can be followed below.

Test [1] concerns the target human claudin 18 isoform 2 (claudin 18.2) (human). Nature of the test: cell-based or functional assay.
Test [2] addresses T1, human claudin 18 isoform 2 (claudin 18.2) (human).
T1 construct: Recombinant on transfected CHO cells (CHO-CLDN18.2) or endogenous on tumor cell lines PATU8988S, NUGC-4, KATOIII; the cell line is named under assay; also called CLDN18.2
In words: imaging, PATU8988S cells (endogenous CLDN18.2); +++ = EC50 between 2 nM and 20 nM. How it is done: (§1) Tumor cells were plated in complete media containing RPMI1640 with +10% FBS, then incubated overnight at 37° C., Claudin18.2 antibodies were serial diluted and added to the assay plates, incubated at 4° C. for 2 hours, followed by fixing cells and further staining the cells for 30 minutes with Alexa Fluor® 488 Goat Anti-Human IgG (H+L) secondary antibody (invitrogen Cat #A-11013) for detection. The binding was assessed by imaging the cells and quantifying the fluorescence intensity using a Biotek Cytation.

Test [3] addresses T2, human claudin 18 isoform 1 (claudin 18.1) (human, UniProt P56856 1-261).
T2 construct: Recombinant on transfected CHO cells (CHO-CLDN18.1); also called CLDN18.1
In words: immunofluorescence imaging on CHO cells expressing human CLDN18.1, antibody at 10 µg/ml. The method in brief: (§2)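 Binding on CHO cells transfected with human CLDN18.2, with human CLDN18.1 transfectants as counter-screen, plated overnight at 37° C. Serially diluted antibodies incubated 2 h at 4° C; fixed cells stained 30 min with Alexa Fluor 488 anti-human IgG and fluorescence intensity quantified by imaging.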

In test [4] the target is T1, human claudin 18 isoform 2 (claudin …). Nature of the test: immunofluorescence imaging, CHO-CLDN18.2 cells, serial dilution. The method, boiled down: as §2
Test [5] has the same target. In words: immunofluorescence imaging, CHO-CLDN18.2 cells (FIG. 3C); Table 6 prints 1.3. As to the method: as §1, with “The specific cellular binding affinity of anti-Claudin18.2 antibodies was tested on CHO-CLDN18.2 (transfected CHO cell expressing recombinant human CLDN18.2) and CHO-CLDN18.1 (transfected CHO cell expressing recombinant human CLDN18.1) cells. The” for “Tumor”, “F12” for “RPMI1640”, “10%” for “+10%”, “anti-Claudin18.2” for “Claudin18.2”, “antibody, invitrogen” for “antibody (invitrogen”, “#A-11013” for “#A-11013)”

The target is the same in test [6]. In words: cell-based or functional assay. The source holds these as a separate data set.
Test [7] has the same target. Nature of the test: immunofluorescence imaging, CHO-CLDN18.2 cells; low end tied to Hu-18 by Table 6 (0.8). As to the method:
as §1, with “The specific cellular binding affinity of anti-Claudin18.2 antibodies was tested on CHO-CLDN18.2 (transfected CHO cell expressing recombinant human CLDN18.2) and CHO-CLDN18.1 (transfected CHO cell expressing recombinant human CLDN18.1) cells. The” for “Tumor”, “F12” for “RPMI1640”, “10%” for “+10%”, “anti-Claudin18.2” for “Claudin18.2”, “antibody, invitrogen” for “antibody (invitrogen”, “#A-11013” for “#A-11013)”

For test [8], the target named is T2, human claudin 18 isoform 1 (claudin …). Nature of the test: imaging, CHO-CLDN18.1 cells, dose titration. How it is done:
as §1, with “The specific cellular binding affinity of anti-Claudin18.2 antibodies was tested on CHO-CLDN18.2 (transfected CHO cell expressing recombinant human CLDN18.2) and CHO-CLDN18.1 (transfected CHO cell expressing recombinant human CLDN18.1) cells. The” for “Tumor”, “F12” for “RPMI1640”, “10%” for “+10%”, “anti-Claudin18.2” for “Claudin18.2”, “antibody, invitrogen” for “antibody (invitrogen”, “#A-11013” for “#A-11013)”

What is called EC50 is the midpoint of the concentration-response curve. Higher therefore signals lower potency in that assay.

T2 sequence (P56856 whole entry, canonical isoform): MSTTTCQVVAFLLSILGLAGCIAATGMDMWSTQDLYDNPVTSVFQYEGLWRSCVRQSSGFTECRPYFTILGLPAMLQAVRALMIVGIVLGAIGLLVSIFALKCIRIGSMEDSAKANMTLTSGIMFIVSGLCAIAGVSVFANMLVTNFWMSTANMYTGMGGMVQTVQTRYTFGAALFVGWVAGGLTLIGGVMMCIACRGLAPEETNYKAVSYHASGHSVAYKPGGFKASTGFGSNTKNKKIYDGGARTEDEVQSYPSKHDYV

B1: Hu-3 (antibody, V domains shown)
VH: QLQLQESGPGLVKPSETLSLTCTVSDGPISSSRYYWGWIRQPPGKGLEWIGSFHYSGSTYYNPSLKSRVTISADTSKNQFSLKLSSVTAADTAVYYCARLVLRYFDWLGFFDLWGRGTLVTVSS
VL: EIVMTQSPAILSLSPGERAALSCRASQSVRSSYLSWYQQKPGQAPRLLIYGTSTRATGIPARFSGSGSGTDFTLTISSLQPEDFAVYYCQQDYNLPITFGQGTRLEFK
Consider B1, for which the “ADCC EC50, CHO-18.2 target cells (mouse FcγRIV reporter bioluminescence)” value in test [1] was 3.11 nM. Besides, the EC50 in test [2] is 2 to 20 nM; in test [4], 1.3 nM; in test [5], 1.34 nM. For the same molecule, the binding result in test [3] is listed as “no binding (tested: 10 µg/ml)”. Also, in test [6], the “endocytosis derived cell toxicity EC50, CHO-18.2 cells (anti-IgG Fc-MMAF co-internalization)” value is 1.23 nM.

B2: Hu-18 (antibody, V domains shown)
VH: QVQLVQSGAEVKKPGASVKVSCRVSGYTLSALSMYWVRQAPGKGLEWMGGFDPEDGKTIYAQKFQGRVTMTEDTSTGTAYMELSSLRSEDTAIYYCATTLRYFDWNYWGQGTPVTVSS
VL: DIVMTQTPLSSPVTLGQPASISCRSSQSLVHSDGNTYLSWLQQRPGQPPRLLIYKVSKRFSGVPDRFSGSGAGTDFTLKISRVEAEDVGVYYCTQGTQFPRTFGQGTKVEIK
notes: Human V regions (Trianni mice)
Consider B2, for which the EC50 in test [7] stood at 0.77 nM; in test [4], 0.8 nM. In test [8], the binding result is recorded as “no binding (tested: 133.4 nM)”.
